The values that follow are results of earlier work, collected in US20260217837A1, “FGFR3 BINDING MOLECULES AND METHODS OF USE THEREOF” (Regeneron Pharmaceuticals, Inc., priority 2023, published 2026).

This series deals with FGFR3.
Setting [1] is: Exemplary FGFR3 D3 binding sequences, antibodies of cited PCT publications.
Where [2] appears, read: Table T-1, exemplary FGFR3 parental antibodies of cited publications.

Where two headings read alike, the source gives them in different places.

B1: MS-Pro-55: anti-FGFR3 Ig-like domain 3 antibody of WO 2002/102972 A2; SEQ ID NO: 44/45 (antibody, V domains shown)
VH: QVQLVQSGAEVKKPGASVKVSCKASGYTFTSYYMHWVRQAPGQGLEWMGWINPNSGGTNYAQKFQGRVTMTRDTSISTAYMELSSLRSEDTAVYYCARSMNSTMYWYLRRVLFDHWGQGTLVTVSS
VL: DIALTQPASVSGSPGQSITISCTGTSSDVGGYNYVSWYQQHPGKAPKLMIYDVSNRPSGVSNRFSGSKSGNTASLTISGLQAEDEADYYCQSYDMYNYIVFGGGTKLTVLGQ
With B1, the Activity entry is on record as “Antagonistic” under setting [1] and “Antagonistic” under setting [2].

B2: PRO-055: anti-FGFR3 IIIc antibody of WO 2006/048877 A2; SEQ ID NO: 44/45 (antibody, V domains shown)
VH: QVQLVQSGAEVKKPGASVKVSCKASGYTFTSYYMHWVRQAPGQGLEWMGWINPNSGGTNYAQKFQGRVTMTRDTSISTAYMELSSLRSEDTAVYYCARSMNSTMYWYLRRVLFDHWGQGTLVTVSS
VL: DIALTQPASVSGSPGQSITISCTGTSSDVGGYNYVSWYQQHPGKAPKLMIYDVSNRPSGVSNRFSGSKSGNTASLTISGLQAEDEADYYCQSYDMYNYIVFGGGTKLTVLGQ
Take B2: the Activity entry by setting is: under setting [1], “Antagonistic”; under setting [2], “Antagonistic”.

B3: PRO-012: anti-FGFR3 antibody of WO 2006/048877 A2; SEQ ID NO: 47/27 (antibody, V domains shown)
VH: QVQLKESGPALVKPTQTLTLTCTFSGFSLSTSGVGVGWIRQPPGKALEWLALIDWDDDKYYSTSLKTRLTISKDTSKNQVVLTMTNMDPVDTATYYCARYHSWYEMGYYGSTVGYMFDYWGQGTLVTVSS
VL: DIELTQPPSVSVAPGQTARISCSGDALGDKYASWYQQKPGQAPVLVIYDDSDRPSGIPERFSGSNSGNTATLTISGTQAEDEADYYCQSYDFDFAVFGGGTKLTVLGQ
Regarding B3, the Activity result under setting [2] is “Antagonistic”.

B4: MS-PRO-12: anti-FGFR3 Ig-like domain 2 antibody of WO 2002/102972 A2; SEQ ID NO: 26/27 (antibody, V domains shown)
VH: QVQLKESGPALVKPQTLTLTCTFSGFSLSTSGVGVGWIRQPPGKALEWLALIDWDDDKYYSTSLKTRLTISKDTSKNQVVLTMTNMDPVDTATYYCARYHSWYEMGYYGSTVGYMFDYWGQGTLVTVSS
VL: DIELTQPPSVSVAPGQTARISCSGDALGDKYASWYQQKPGQAPVLVIYDDSDRPSGIPERFSGSNSGNTATLTISGTQAEDEADYYCQSYDFDFAVFGGGTKLTVLGQ
Turning to B4, under setting [2], the Activity result was “Antagonistic”.

B5: MS-Pro-54: anti-FGFR3 Ig-like domain 3 antibody of WO 2002/102972 A2; SEQ ID NO: 42/43 (antibody, V domains shown)
VH: QVQLVQSGAEVKKPGASVKVSCKASGYTFTSYYMHWVRQAPGQGLEWMGWINPNSGGTNYAQKFQGRVTMTRDTSISTAYMELSSLRSEDTAVYYCARNMAYTNYQYVNMPHFDYWGQGTLVTVSS
VL: DIELTQPPSVSVAPGQTARISCSGDALGDKYASWYQQKPGQAPVLVIYDDSDRPSGIPERFSGSNSGNTATLTISGTQAEDEADYCQSYDYFKLVFGGGTKLTVLGQ
For B5, the Activity entry under setting [1] was “Antagonistic” and the Activity result under setting [2] is “Antagonistic”.

B6: PRO-054: anti-FGFR3 IIIc antibody of WO 2006/048877 A2; SEQ ID NO: 42/50 (antibody, V domains shown)
VH: QVQLVQSGAEVKKPGASVKVSCKASGYTFTSYYMHWVRQAPGQGLEWMGWINPNSGGTNYAQKFQGRVTMTRDTSISTAYMELSSLRSEDTAVYYCARNMAYTNYQYVNMPHFDYWGQGTLVTVSS
VL: DIELTQPPSVSVAPGQTARISCSGDALGDKYASWYQQKPGQAPVLVIYDDSDRPSGIPERFSGSNSGNTATLTISGTQAEDEADYYCQSYDYFKLVFGGGTKLTVLGQ
Consider B6, for which the Activity entry under setting [1] is recorded as “Antagonistic” and the Activity result under setting [2] was “Antagonistic”.

B7: PRO-001: anti-FGFR3 antibody of WO 2006/048877 A2; SEQ ID NO: 46/29 (antibody, V domains shown)
VH: QVQLQQSGPGLVKPSQTLSLTCAISGDSVSSNSAAWNWIRQSPGRGLEWLGRTYYRSKWYNDYAVSVKSRITINPDTSKNQFSLQLNSVTPEDTAVYYCARSYYPDFDYWGQGTLVTVSS
VL: DIELTQPPSVSVAPGQTARISCSGDALGDKYASWYQQKPGQAPVLVIYDDSDRPSGIPERFSGSNSGNTATLTISGTQAEDEADYYCQSYDGPDLWVFGGGTKLTVLGQ
B7: under setting [2], the Activity result is “Antagonistic”.

B8: PRO-002: anti-FGFR3 antibody of WO 2006/048877 A2; SEQ ID NO: 24/25 (antibody, V domains shown)
VH: QVQLVQSGAEVKKPGASVKVSCKASGYTFTSYYMHWVRQAPGQGLEWMGWINPNSGGTNYAQKFQGRVTMTRDTSISTAYMELSSLRSEDTAVYYCARDFLGYEFDYWGQGTLVTVSS
VL: DIELTQPPSVSVAPGQTARISCSGDALGDKYASWYQQKPGQAPVLVIYDDSDRPSGIPERFSGSNSGNTATLTISGTQAEDEADYYCQSYDYSADYVFGGGTKLTVLGQ
In the case of B8, under setting [2], the Activity result was “Antagonistic”.

B9: 20B4: anti-FGFR3 Igl 3 antibody of WO 2010/002862 A2; SEQ ID NO: 57/58 (antibody, V domains shown)
VH: EIQLQQSGPELVKPGASVKVSCKASGYSLTDYNMYWVKQSHGKSLEWIGYIDPYNGGTSYNQKFKGKATLTVDKSSSTAFMHLNSLTSEDSAVYYCARSLGPDFDYWGQGTTLTVSS
VL: QIVLTQSPAIMSASPGEKVTMTCSASSSVNYMHWYQQKSGTSPKRWIYDTSKLASGVPARFSGSGSGTSYSLTISSMEAEDTATYYCQQWNSNPLTFGAGTKLELK
For B9, the Activity result is on record as “Antagonistic” under setting [1] and “Antagonistic” under setting [2].

B10: PRO-029: anti-FGFR3 IIIc antibody of WO 2006/048877 A2; SEQ ID NO: 40/49 (antibody, V domains shown)
VH: QVQLVQSGAEVKKPGASVKVSCKASGYTFTSYYMHWVRQAPGQGLEWMGWINPNSGGTNYAQKFQGRVTMTRDTSISTAYMELSSLRSEDTAVYYCARTWQYSYFYYLDGGYYFDIWGQGTLVTVSS
VL: DIVLTQSPATLSLSPGERATLSCRASQSVSSSYLAWYQQKPGQAPRLLIYGASSRATGVPARFSGSGSGTDFTLTISSLEPEDFATYYCQQTNNAPVTFGQGTKVEIKRT
As to B10, the Activity result is, setting by setting: under setting [1], “Antagonistic”; under setting [2], “Antagonistic”.

B11: 15D8: anti-FGFR3 Igl 3 antibody of WO 2010/002862 A2; SEQ ID NO: 51/52 (antibody, V domains shown)
VH: EIQLQQSGPELVKPGASVKVSCKASGYAFTSYNMYWVKQSHGKSLEWIGYIDPYNGGTSYNQKFKGKATLTVDKSSSTAYMHLNSLTSEDSAVYYCAREGGNYEAWFAYWGQGTLVTVSA
VL: QIVLTQSPALMSASPGEKVTMTCSASSSVSYMYWYQQKPRSSPKPWIYLTSYLASGVPARFSGSGSGTSYSLTISSMEAEDAATYYCQQWSSYPLTFGAGTKLELK
With B11, the Activity entry is recorded as “Antagonistic” under setting [1] and “Antagonistic” under setting [2].

B12: 2G4: anti-FGFR3 Igl 3 antibody of WO 2010/002862 A2; SEQ ID NO: 55/54 (antibody, V domains shown)
VH: EIQLQQSGPELVKPGASVKVSCKASGYAFTSYNMYWVKQSHGKSLEWIGYIDPYNGGTRDNQKFKGKATLTVDKSSSTAYMHLNSLTSEDSAVYYCAREGGNYEAWFAYWGQGTLVTVSA
VL: QIVLTQSPALMSASPGEKVTMTCSASSSVSYMYWYQQKPRSSPKPWIYLTSNLASGVPARFSGSGSGTSYSLTISSMEAEDAATYYCQQWSSNPLTFGAGTKLELK
Regarding B12, the Activity entry by setting is: under setting [1], “Antagonistic”; under setting [2], “Antagonistic”.

B13: 4E7(7D12): anti-FGFR3 Igl 3 antibody of WO 2010/002862 A2; SEQ ID NO: 56/54 (antibody, V domains shown)
VH: EIQLQQSGPELVKPGASVKVSCKASGYAFTSYNMYWVKQSHGKSLEWIGYIDPYNGGTRYNQKFKGKATLTVDKSSSTAYMHLNSLTSEDSAVYYCAREGGNYEAWFAYWGQGTLVTVSA
VL: QIVLTQSPALMSASPGEKVTMTCSASSSVSYMYWYQQKPRSSPKPWIYLTSNLASGVPARFSGSGSGTSYSLTISSMEAEDAATYYCQQWSSNPLTFGAGTKLELK
As to B13, the Activity entry under setting [1] is “Antagonistic” and the Activity result under setting [2] is given as “Antagonistic”.

B14: 27H2: anti-FGFR3 Igl 3 antibody of WO 2010/002862 A2; SEQ ID NO: 53/54 (antibody, V domains shown)
VH: EIQLQQSGPELVKPGASVKVSCKASGYAFTSYNMYWVKQSHGKSLEWIGYIDPYNGGTRYNQKFKGKATMTVDKSSSTAYMHLNSLTSEDSAVYYCAREGGNYEAWFAYWGQGTLVTVSA
VL: QIVLTQSPALMSASPGEKVTMTCSASSSVSYMYWYQQKPRSSPKPWIYLTSNLASGVPARFSGSGSGTSYSLTISSMEAEDAATYYCQQWSSNPLTFGAGTKLELK
Turning to B14, the Activity result by setting is: under setting [1], “Antagonistic”; under setting [2], “Antagonistic”.

B15: Hu15D8: anti-FGFR3 Igl 3 antibody of WO 2010/002862 A2; SEQ ID NO: 59/60 (antibody, V domains shown)
VH: EVQLVQSGAEVKKPGESLKISCKGSGYSFTSYNMYWVRQMPGKGLEWMGYIDPYNGGTSYNQKFKGKATLTVDKSISTAYLQWSSLKASDTAMYYCAREGGNYEAWFAYWGQGTLVTVSS
VL: DIQLTQSPSSLSASVGDRVTITCSASSSVSYMYWFQQKPGKAPKPLIYLTSYLASGVPSRFSGSGSGTDFTLTISSLQPEDFATYYCQQWSSYPLTFGGGTKVEIK
In the case of B15, the Activity entry is listed as “Antagonistic” under setting [1] and “Antagonistic” under setting [2].

B16: PRO-026: anti-FGFR3 IIIc antibody of WO 2006/048877 A2; SEQ ID NO: 36/37 (antibody, V domains shown)
VH: QVQLVQSGAEVKKPGASVKVSCKASGYTFTSYYMHWVRQAPGQGLEWMGWINPNSGGTNYAQKFQGRVTMTRDTSISTAYMELSSLRSEDTAVYYCARGYWYAYFTYINYGYFDNWGQGTLVTVSS
VL: DIALTQPASVSGSPGQSITISCTGTSSDVGGYNYVSWYQQHPGKAPKLMIYDVSNRPSGVSNRFSGSKSGNTASLTISGLQAEDEADYYCQSYDNNSDWFGGGTKLTVLGQ
For B16, the Activity entry was “Antagonistic” under setting [1] and “Antagonistic” under setting [2].
